These results are taken from paper PMC2646761.

Substrate in this series: CC#CC(=O)C(=O)O
As to the kind of experiment: purified protein. It counts as biochemical, Corynebacterium glutamicum. To be noted: hydration of 2-oxo-3-pentynoate; typical value of the enzyme preparations used.

B1: Cg10062 (Corynebacterium glutamicum ATCC 13032) (protein)
chain: PTYTCWSQRIRISREAKQRIAEAITDAHHELAHAPKYLVQVIFNEVEPDSYFIAAQSASENHIWVQATIRSGRTEKQKEELLLRLTQEIALILGIPNEEVWVYITEIPGSNMTEYGRLLMEPGEEEKWFNSLPEGLRERLTELEGSSE
Turning to B1, the Michaelis-Menten constant (Km) (as a rule, the substrate concentration at which the rate is half of its maximum) is 4.2 ± 0.3 mM; the kcat – broadly, the number of substrate molecules converted per active site and unit of time at saturation – came to 0.16 ± 0.01 s⁻¹.
